Measurements taken from patent publication US7867500B2, “Cofactor that modulates steroid receptor activities” (The United States of America as represented by the …, priority 2004, dated 2011).

T1: PRs (B-form) (Homo sapiens, UniProt P06401)
T1 construct: expressed in transfected cells; host or cells: CV-1
T1 sequence (P06401 1-933): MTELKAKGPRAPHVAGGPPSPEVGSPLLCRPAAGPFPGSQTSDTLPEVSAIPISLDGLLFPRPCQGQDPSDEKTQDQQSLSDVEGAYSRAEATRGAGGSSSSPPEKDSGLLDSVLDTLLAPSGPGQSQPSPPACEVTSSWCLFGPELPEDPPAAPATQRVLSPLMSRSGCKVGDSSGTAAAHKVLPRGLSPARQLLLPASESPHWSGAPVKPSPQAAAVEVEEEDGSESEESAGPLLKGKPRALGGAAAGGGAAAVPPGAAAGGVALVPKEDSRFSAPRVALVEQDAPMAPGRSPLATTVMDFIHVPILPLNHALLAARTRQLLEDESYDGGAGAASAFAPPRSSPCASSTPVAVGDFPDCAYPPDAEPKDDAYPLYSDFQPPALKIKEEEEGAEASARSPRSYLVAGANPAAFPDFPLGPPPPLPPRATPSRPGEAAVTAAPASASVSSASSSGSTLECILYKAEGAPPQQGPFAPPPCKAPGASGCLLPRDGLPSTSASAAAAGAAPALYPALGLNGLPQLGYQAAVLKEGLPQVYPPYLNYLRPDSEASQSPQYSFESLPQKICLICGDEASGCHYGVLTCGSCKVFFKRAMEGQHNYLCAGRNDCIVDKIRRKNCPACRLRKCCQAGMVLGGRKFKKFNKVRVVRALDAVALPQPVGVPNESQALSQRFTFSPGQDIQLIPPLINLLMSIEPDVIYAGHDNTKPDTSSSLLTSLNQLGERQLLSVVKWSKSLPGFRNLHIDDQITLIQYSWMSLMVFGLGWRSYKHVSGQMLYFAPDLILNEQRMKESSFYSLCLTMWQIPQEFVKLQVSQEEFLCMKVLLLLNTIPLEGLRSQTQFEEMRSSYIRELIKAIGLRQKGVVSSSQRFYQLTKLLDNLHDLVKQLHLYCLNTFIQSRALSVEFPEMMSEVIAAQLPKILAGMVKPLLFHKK
T1 sequence (Q6EMB2 838-1281 F1267S partner limits assumed): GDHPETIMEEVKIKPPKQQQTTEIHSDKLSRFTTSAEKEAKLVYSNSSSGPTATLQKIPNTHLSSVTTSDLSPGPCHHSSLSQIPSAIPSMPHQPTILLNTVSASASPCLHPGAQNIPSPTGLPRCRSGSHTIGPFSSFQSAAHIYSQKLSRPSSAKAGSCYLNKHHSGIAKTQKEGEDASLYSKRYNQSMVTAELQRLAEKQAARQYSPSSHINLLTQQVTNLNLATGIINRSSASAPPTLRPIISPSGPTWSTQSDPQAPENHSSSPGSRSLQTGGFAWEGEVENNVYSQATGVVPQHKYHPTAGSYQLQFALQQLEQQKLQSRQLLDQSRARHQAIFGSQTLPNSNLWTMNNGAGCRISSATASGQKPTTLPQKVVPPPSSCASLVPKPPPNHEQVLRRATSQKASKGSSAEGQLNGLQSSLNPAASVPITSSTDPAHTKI


What was measured:
[1] = target: T1, PRs (B-form); assay: Mammalian two-hybrid assay with VP16 full length receptor: PR; assay type: cell-based; details: 20 nM R5020
Method: FIG. 6C1-3 illustrate the association of STAMP with assorted steroid/nuclear receptors, including glucocorticoid receptors (GRs), progesterone receptors (PRs), androgen receptors (ARs), estrogen receptors (ER α or β), PPARγ2 receptors, thyroid receptor beta (TR), and retinoid (α) receptors (RAR α or RXR α). Triplicate samples of CV-1 cells were transfected (as described for FIG. 6B) with GAL, or GAL fused to TIF2.4 or STAMP834C, plus VP16 fused to the indicated full length receptors and incubated with the appropriate steroid (1 μM Dex, 20 nM R5020, 1 nM R1881, 0.1 μM triiodothyronine, or 1 μM estradiol, roziglitazone, or 9-cis-retinoic acid). The average relative luciferase activities of 2-3 experiments±S.E.M. were then plotted. FIG. 6C1 illustrates the effects of STAMP association upon GR, PR and AR induced expression. FIG. 6C2 illustrates the effects of STAMP association upon ERα, ERβ and PPARγ2 induced expression. FIG. 6C3 illustrates the effects of STAMP association upon TR, RARα and RXRα induced expression.
These assays were conducted as described (He et al., 2002). […]

[2] = target: T2, p300 (Homo sapiens, UniProt Q09472); assay: Mammalian two-hybrid assay with p300; assay type: cell-based; details: data not shown
T2 construct: expressed in transfected cells; host or cells: CV-1 (the same two-hybrid assay)
Method: These assays were conducted as described (He et al., 2002). In particular, the recommended procedure for the Mammalian Matchmaker two-hybrid assay kit (Clontech) was modified slightly by changing from a chloramphenicol acetyltransferase reporter to a Luciferase Reporter pFRLuc (Stratagene), which is under the control of five repeats of the upstream activating sequence for the binding of GAL4.

T2 sequence (Q09472 whole entry, species assumed): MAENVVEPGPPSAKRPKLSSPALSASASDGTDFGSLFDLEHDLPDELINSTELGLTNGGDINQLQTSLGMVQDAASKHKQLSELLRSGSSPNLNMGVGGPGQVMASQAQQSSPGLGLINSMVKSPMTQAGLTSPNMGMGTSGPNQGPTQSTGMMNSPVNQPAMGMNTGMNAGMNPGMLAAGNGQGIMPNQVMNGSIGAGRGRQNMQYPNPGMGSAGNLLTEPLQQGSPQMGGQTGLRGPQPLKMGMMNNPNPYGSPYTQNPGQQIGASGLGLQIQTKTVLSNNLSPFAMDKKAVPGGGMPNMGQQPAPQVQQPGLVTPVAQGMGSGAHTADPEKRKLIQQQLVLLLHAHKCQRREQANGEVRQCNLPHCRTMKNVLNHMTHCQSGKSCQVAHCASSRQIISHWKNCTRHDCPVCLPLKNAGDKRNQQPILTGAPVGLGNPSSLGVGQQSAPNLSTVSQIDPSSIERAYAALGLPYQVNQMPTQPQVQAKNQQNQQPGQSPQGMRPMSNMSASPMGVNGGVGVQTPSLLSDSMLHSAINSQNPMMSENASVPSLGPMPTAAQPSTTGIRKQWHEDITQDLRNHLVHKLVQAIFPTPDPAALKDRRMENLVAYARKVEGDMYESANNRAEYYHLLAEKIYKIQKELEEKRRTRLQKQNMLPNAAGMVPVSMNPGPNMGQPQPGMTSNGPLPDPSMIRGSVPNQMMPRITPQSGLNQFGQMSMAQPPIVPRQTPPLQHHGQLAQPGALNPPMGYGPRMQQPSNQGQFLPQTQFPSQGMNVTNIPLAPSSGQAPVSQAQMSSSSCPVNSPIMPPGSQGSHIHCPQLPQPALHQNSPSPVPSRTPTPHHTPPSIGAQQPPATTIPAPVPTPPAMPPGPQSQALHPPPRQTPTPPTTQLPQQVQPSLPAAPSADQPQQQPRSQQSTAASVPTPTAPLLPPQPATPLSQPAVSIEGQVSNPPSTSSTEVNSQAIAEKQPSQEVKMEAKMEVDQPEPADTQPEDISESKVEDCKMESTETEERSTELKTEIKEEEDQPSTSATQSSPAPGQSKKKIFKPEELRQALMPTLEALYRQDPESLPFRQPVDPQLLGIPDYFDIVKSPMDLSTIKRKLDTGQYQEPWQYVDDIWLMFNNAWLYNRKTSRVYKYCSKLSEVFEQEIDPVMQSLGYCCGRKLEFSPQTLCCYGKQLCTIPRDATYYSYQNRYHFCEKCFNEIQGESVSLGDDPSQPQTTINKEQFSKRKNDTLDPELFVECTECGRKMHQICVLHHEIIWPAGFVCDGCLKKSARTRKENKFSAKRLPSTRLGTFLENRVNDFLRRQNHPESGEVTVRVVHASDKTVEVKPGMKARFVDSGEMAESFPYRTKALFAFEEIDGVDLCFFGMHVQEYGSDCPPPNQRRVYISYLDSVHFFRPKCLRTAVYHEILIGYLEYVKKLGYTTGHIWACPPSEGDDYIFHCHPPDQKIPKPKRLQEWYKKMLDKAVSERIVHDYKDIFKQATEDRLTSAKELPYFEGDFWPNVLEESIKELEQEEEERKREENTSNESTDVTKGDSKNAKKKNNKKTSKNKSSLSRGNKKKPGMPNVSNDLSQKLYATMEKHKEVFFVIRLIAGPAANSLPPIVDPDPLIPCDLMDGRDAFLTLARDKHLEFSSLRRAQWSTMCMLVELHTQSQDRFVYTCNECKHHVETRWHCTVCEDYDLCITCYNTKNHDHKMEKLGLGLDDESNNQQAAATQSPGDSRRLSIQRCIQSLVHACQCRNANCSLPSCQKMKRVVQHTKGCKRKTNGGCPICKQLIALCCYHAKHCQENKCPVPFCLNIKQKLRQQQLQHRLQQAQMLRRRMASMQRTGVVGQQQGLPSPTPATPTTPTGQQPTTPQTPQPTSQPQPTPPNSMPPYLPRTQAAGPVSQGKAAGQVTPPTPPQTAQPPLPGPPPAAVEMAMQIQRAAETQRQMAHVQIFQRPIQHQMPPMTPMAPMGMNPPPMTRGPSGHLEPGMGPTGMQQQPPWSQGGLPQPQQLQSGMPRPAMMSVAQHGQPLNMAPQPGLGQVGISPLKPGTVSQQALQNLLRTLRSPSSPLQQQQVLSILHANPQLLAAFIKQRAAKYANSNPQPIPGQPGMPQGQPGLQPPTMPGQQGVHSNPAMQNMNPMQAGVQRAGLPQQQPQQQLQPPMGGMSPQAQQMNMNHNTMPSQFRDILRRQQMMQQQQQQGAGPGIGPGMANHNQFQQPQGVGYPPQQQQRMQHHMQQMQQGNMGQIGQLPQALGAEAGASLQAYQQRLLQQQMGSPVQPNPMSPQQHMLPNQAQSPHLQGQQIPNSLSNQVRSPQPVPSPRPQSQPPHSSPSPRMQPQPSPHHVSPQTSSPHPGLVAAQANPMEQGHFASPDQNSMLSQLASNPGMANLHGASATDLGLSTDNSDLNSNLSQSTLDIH

Molecule | interaction with agonist-bound, full length PR [1] | association with p300 [2]
STAMP834C: STAMP fragment amino acids 834-1277, receptor interaction domain (RID) (protein) GDHPETIMEEVKIKPPKQQQTTEIHSDKLSRFTTSAEKEAKLVYSNSSSGPTATLQKIPNTHLSSVTTSDLSPGPCHHSSLSQIPSAIPSMPHQPTILLNTVSASASPCLHPGAQNIPSPTGLPRCRSGSHTIGPFSSFQSAAHIYSQKLSRPSSAKAGSCYLNKHHSGIAKTQKEGEDASLYSKRYNQSMVTAELQRLAEKQAARQYSPSSHINLLTQQVTNLNLATGIINRSSASAPPTLRPIISPSGPTWSTQSDPQAPENHSSSPGSRSLQTGGFAWEGEVENNVYSQATGVVPQHKYHPTAGSYQLQFALQQLEQQKLQSRQLLDQSRARHQAIFGSQTLPNSNLWTMNNGAGCRISSATASGQKPTTLPQKVVPPPSSCASLVPKPPPNHEQVLRRATSQKASKGSSAEGQLNGLQSSLNPAASVPITSSTDPAHTKI | interacted | –
6-6CL1: STAMP fragment amino acids 623-834, coactivator interaction domain (CID) (protein) ENTPKENSMKVREWNNKGGHCCKLETQELEPKFNLMQILQDNGNLSKMQARIAFSAYLQHVQIRLMKDSGGQTFSASWAAKEDEQMELVVRFLKRASNNLQHSLRMVLPSRRLALLERRRILAHQLGDFIIVYNKETEQMAEKKSKKKVEEEEEDGVNMENFQEFIRQASEAELEEVLTFYTQKNKSASVFLGTHSKISKNNNNYSDSGAKG | – | negligible association
